Patent publication US20190248902A1 (published 2019)

T1: Soluble ASGR-1 (human, UniProt P07306 62-291, biotinylated)
T1 construct: Soluble recombinant protein; also called recombinant, soluble ASGR-1 biotinylated protein
T1 sequence: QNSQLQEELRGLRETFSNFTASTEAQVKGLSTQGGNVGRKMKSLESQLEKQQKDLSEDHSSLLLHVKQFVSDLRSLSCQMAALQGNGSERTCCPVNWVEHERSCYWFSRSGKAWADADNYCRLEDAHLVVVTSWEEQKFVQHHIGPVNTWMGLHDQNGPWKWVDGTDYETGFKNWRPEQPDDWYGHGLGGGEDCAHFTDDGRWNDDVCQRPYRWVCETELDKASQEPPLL

T2: Rat ASGR-1 (rat, UniProt P02706 1-284)
T2 construct: Expressed on HEK 293 cells or as membrane prep on beads; cDNA GenBank NM_012503
T2 sequence: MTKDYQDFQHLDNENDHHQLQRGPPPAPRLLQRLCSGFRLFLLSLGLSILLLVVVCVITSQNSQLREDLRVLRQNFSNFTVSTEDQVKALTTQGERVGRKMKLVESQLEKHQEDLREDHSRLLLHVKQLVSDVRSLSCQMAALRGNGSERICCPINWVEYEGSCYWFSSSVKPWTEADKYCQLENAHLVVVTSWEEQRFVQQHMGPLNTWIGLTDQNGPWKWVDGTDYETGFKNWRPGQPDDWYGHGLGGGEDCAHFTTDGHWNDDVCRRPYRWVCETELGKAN

T3: Dog ASGR-1 (dog)
T3 construct: Expressed on HEK 293 cells or as membrane prep on beads; cDNA GenBank XM_546579
T3 chain: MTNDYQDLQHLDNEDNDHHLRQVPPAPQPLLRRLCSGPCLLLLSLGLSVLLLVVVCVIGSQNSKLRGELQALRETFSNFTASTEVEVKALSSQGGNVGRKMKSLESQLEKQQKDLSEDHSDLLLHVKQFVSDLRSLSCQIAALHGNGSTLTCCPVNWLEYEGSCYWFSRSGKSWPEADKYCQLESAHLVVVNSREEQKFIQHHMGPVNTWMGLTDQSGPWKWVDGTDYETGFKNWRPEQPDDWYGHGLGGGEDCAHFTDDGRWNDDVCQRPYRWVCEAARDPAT

T4: Pig ASGR-1 (pig)
T4 construct: Expressed on HEK 293 cells or as membrane prep on beads; cDNA GenBank NM_001244458
T4 chain: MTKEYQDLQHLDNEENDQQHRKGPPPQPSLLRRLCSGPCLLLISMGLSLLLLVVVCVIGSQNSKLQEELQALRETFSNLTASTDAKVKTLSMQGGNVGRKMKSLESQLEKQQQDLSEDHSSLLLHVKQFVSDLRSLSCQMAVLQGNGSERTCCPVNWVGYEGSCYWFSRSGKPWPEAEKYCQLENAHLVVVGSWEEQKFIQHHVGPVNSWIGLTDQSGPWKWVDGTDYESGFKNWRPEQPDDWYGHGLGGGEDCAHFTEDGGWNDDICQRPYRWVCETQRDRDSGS


Assays:
Soluble ASGR-1 = molecular target: T1, Soluble ASGR-1; assay: limited antigen binding assay; biotinylated soluble ASGR-1 coated at 2.5 ng/mL on LumAvidin beads, FACS
Procedure: To assess antibody and antigen interaction strength (relative binding affinity), ASGR-1 specific, ligand competing antibody hybridoma supernatants were tested in a limiting antigen binding assay. Titrated amounts of recombinant, soluble ASGR-1 biotinylated protein was incubated with streptavidin-coated LumAvidin Beads® for 45 minutes in the dark at room temperature and washed twice. Beads were resuspeneded in FACS buffer containing Stabilguard® and 0.05% Sodium Azide. Antigen-bound beads were then incubated with normalized hybridoma supernatant sample or controls for 18 hours in the dark at room temperature, washed twice, incubated with Alexa Fluor® 488 IgG fragment-specific detection antibody for 15 minutes in the dark at room temperature, washed once and finally resuspended in FACS buffer. Samples were analyzed using an Intellicyt iQue™ Screener Platform. FACS buffer supplemented with 1 mM Calcium Chloride was used in all steps. […] In this assay method, the antibody binding signal correlates with antibody affinity. Antibody binding data for a representative antigen coating concentration that fell in the linear range of the instrument signal detection is shown in Table 7.2. The degree of antibody binding to the target (ASGR-1) correlates with the measured fluorescent intensity and thus allows a relative comparison of affinities across the panel.

Rat ASGR-1 [1] = molecular target: T2, Rat ASGR-1; assay: FACS on transfected HEK 293 cells or membrane preps on beads; binding = signal at least 2x irrelevant IgG
Procedure, shortened: (§1)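 Antibodies at normalized concentrations bound 1 h at 4° C to HEK 293 cells expressing each antigen, then Alexa Fluor 647 anti-Fc plus 7-AAD 15 min at 4° C, flow cytometry; empty-vector cells as negative. Alternatively, species ASGR-1 membrane preps on streptavidin beads, antibody 1 h RT, Alexa Fluor 488 anti-Fc; FACS buffer with 1 mM CaCl2 throughout.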

Dog ASGR-1 [2] = molecular target: T3, Dog ASGR-1; assay: as above
Procedure, shortened: as §1

Rat ASGR-1 [3] = molecular target: T2, Rat ASGR-1; assay: FACS on transfected HEK 293 cells or membrane preps on beads; Y = signal at least 2x irrelevant IgG
Procedure, shortened: as §1

Dog ASGR-1 [4] = molecular target: T3, Dog ASGR-1; assay: as above
Procedure, shortened: as §1

Pig ASGR-1 = molecular target: T4, Pig ASGR-1; assay: FACS on transfected HEK 293 cells or membrane preps on beads; binding = signal at least 2x irrelevant IgG
Procedure, shortened: as §1

| Binder | FACS Geomean (Soluble ASGR-1) | binding result (Rat ASGR-1 [1]) | binding result (Dog ASGR-1 [2]) | binding result (Rat ASGR-1 [3]) | binding result (Dog ASGR-1 [4]) | binding result (Pig ASGR-1) |
| --- | --- | --- | --- | --- | --- | --- |
| 7E11 (antibody, V domains shown, Tested as hybridoma supernatant at normalized concentration) VH: QVQLVESGGGVVQPGRSLRLSCAASGFTFSSFGMHWVRQAPGKGLEWVAIIWHDGSNKYYADSVKGRFTISRDNSNNTLYLQMSSLRAEDTAVYYCARDLSMGGMDVWGQGTTVTVSS VL: DIQMTQSPSSLSASVGDRVTIACRASQNIISYLNWYQQKPGKAPKFLIYTASSLQSGVPSRFSGSGSGTDFTLTISSLQPEDFAIYYCQQTYSTPLTFGGGTKVEIK | 4660 FACS Geomean | no binding | no binding | – | – | – |
| 198D2 (antibody, V domains shown, Tested as hybridoma supernatant at normalized concentration) VH: QVQLVESGGGVVQPGRSLRLSCAASGFTFRSYGMHWVRQAPGKGLEWVAVIIYDGSYKYYADSVKGRFTISRDNSKNTLYLQMNSLRAEDTAVYYCARTYSGGMDVWGQGTTVTVSS VL: QSVLTQPPSVSAAPGQKVTISCSGSSSNIGSNYVSWYQQLPGTAPKVLIYDNNKRPSGIPDRFSGSKSGTSATLGITGLQTGDEADYYCGTWDSRLNVGVFGGGTKLTVL | 1870 FACS Geomean | – | no binding | binds | – | – |
| 56E5 (antibody, V domains shown, Tested as hybridoma supernatant at normalized concentration) VH: QVQLVQSGAEVKKPGASVKVSCQASGYTFTGYHMHWVRQAPGQGLEWMGWINPNNNATNYAQKFQGRVTMTRDTSISTAYMELRRLRSDDTAVYHCARDGTSSFDYWGQGTLVTVSS VL: DIQMTQSPSSVSASVGDRVTITCRASQGIRKWLAWYQQKPGKAPKLLIYAASSLQSGVPSRFSGSGSGTDFTLTISSLQPEDFATYYCQQANSFPFTFGPGTKVDIK | 22600 FACS Geomean | no binding | no binding | – | – | – |
| 48B12 (antibody, V domains shown, Tested as hybridoma supernatant at normalized concentration) VH: EVQLLESGGGLVQPGGSLRLSCAASGFTFSSYAMNWVRQAPGKGLEWVSAISGRGGNTFYADSVKGRFTISRDNSKNTLYLQMNSLRAEDTAVYYCAKRETYNWNYEGFDYWGQGTLVTVSS VL: SYELTQPPSVSVSPGQTARITCSGDALPKKYAYWYQQKSGQAPVLVIYEDSKRPSGIPERFSGSSSGTMATLTISGAQVEDEADYYCNSTDSSGNHVVFGGGTKLTVL | 27000 FACS Geomean | no binding | no binding | – | – | – |
| 7G4 (antibody, V domains shown, Tested as hybridoma supernatant at normalized concentration) VH: QVQLVESGGGVVQPGRSLRLSCAASGFTFNNYVMHWVRQAPGKGLEWVAVIWYDGSNKYYADSVKGRFTISRDNSKNTLYLQMTSLRAEDTAVYYCAREKYSSNWYDYGMDVWGQGTTVTVSS VL: DIQMTQSPSSLSASVGDRVTITCRASQGIRNDLGWYQQRPGKAPKRLIYAASSLQSGVPSRFSGSGSGTEFTLTISSLQPEDSATYYCLHQYSYPRTFGQGTKVEIK | 6800 FACS Geomean | no binding | no binding | – | – | – |
| 26C4 (antibody, V domains shown, Tested as hybridoma supernatant at normalized concentration) VH: QVQLVQSGAEVKKPGASVKVSCKASGYTFTNYDINWVRQASGQGLEWMGWMNPNSGNTGYAQRFQGRVTMTRNTSINTAYMELSSLRSEDTAVYYCASSSGWYYFDYWGQGTLVTVSS VL: not shown | 12000 FACS Geomean | – | no binding | binds | – | – |

Second part, the binder after the results:

| FACS Geomean (Soluble ASGR-1) | binding result (Rat ASGR-1 [1]) | binding result (Dog ASGR-1 [2]) | binding result (Rat ASGR-1 [3]) | binding result (Dog ASGR-1 [4]) | binding result (Pig ASGR-1) | Binder |
| --- | --- | --- | --- | --- | --- | --- |
| 2990 FACS Geomean | – | no binding | binds | – | – | 4H6 (antibody, V domains shown, Tested as hybridoma supernatant at normalized concentration) VH: QVQLVQSGAEVKKPGASVKVSCKASGYTFTDYYLHWVRQAPGQGLEWMGWIHPNSGGTNYAQKFQGRVTMTRDTSISTAYMGLSSLRSDDTAVYYCARDGTSSFDYWGQGTLVTVSS VL: DIQMTQSPSSVSASVGDRVTITCRASQGISRWLAWYQQKPGKAPKLLIYGASSLQSGVPSRFSGSGSGTDFTLTISSLQPEDFAIYYCQQANSFPFTFGPGTKVDIK |
| 34000 FACS Geomean | – | – | binds | binds | – | 72G9 (antibody, V domains shown, Tested as hybridoma supernatant at normalized concentration) VH: EVQLVESGGGLVKPGGSLRLSCAASGFTFSSYSMNWVRQAPGKGLEWVSSISGSSSYIYYADSVKGRFTISRDNAKNSLYLQMNSLRAEDTAVYFCARGGSRGFDPWGQGTLVTVSS VL: DIQMTQSPSSLSASVGDRVTITCRASQSITSYLNWYQQKPGKAPKLLIYTASSLQSGVPSRFSGSGSGTDFTLTISSLQPEDFATYYCQQSHSFPFTFGPGTKVDIK |
| 10100 FACS Geomean | – | – | binds | binds | – | 4B1 (antibody, V domains shown, Tested as hybridoma supernatant at normalized concentration) VH: QVQLQESGPGLVKPSETLSLTCSVSGDSISSYSWSWIRQPAGKGLEWIGRIYTSGSTNYIPSLKSRITMSVDTSKKQFSLKLSSVTAADTAVYYCARDLKSSGCLFFDYWGQGTLVTVSS VL: DIQMTQSPSSLSASVGDRVTITCRASHTIRTYLNWYQQKPGKAPKLLIYAASSLQSGVPSRINGSGSGTDFTLTITNLQPEDFATYYCQQSYNISFTFGPGTKVDIK |
| 18300 FACS Geomean | no binding | – | – | binds | no binding | 193E7 (antibody, V domains shown, Tested as hybridoma supernatant at normalized concentration) VH: QVQLQQWGAGLLKPSETLSLTCAVYGGSFSGYFWTWIRQPPGKGLEWIGEINHSGSTNYNPSLKSRVTISVDTSKNQFSLKLSSVTAADTAVYYCARDYGADYWGQGTLVAVSA VL: DIQMTQSPSSLSASVGDRVTITCRASQGIRNDLGWYQQKPGKAPKRLIYSASSLQRGVPSRFSGSGSGTEFTLTISSLQPEDFATYYCLQHKRYPLTFGGGTKVEIK |
| 18000 FACS Geomean | – | no binding | binds | – | – | 25A4 (antibody, V domains shown, Tested as hybridoma supernatant at normalized concentration) VH: QVLLVQSGAEVKRPGASVKVSCKASGYTFTNYDINWVRQATGQGLEWMGWMYPNSGNTGYAQKFQGRVTMTRNTSISTAYMELSSLRSEDTAVYYCASSSGWYYFDYWGQGTLVTVSS VL: DIVMTQFPDSLAVSLGERATIKCKSSQSVLYSSHNNNYLAWYQQKPGQPPKLLLYWASTRESGVPDRFSGSGSGTEFTLTISSLEAEDVAVYYCQQYYSTPPTFGQGTKVEIK |
| 16600 FACS Geomean | – | no binding | binds | – | – | 4A2 (antibody, V domains shown, Tested as hybridoma supernatant at normalized concentration) VH: QVQLVQSGTEVKKPGASVKVSCKASGYTFTNYDINWVRQATGQGLEWMGWMHPNSGNTGYAQKFQGRVTLTRNTSISTAYMELSSLRSEDTAVYYCASSSGWYYFDYWGQGTLVTVSS VL: DIVMTQSPDSLAVSLGERATINCKSSQSILHSSNNNNYLAWFQQKPGQPPKLLLYWASTRESGVPDRFSGSGSGTDFTLTISSLQPEDVAVYYCQQYYNTPVTFGPGTKVGIK |
| 12200 FACS Geomean | – | no binding | binds | – | – | 29H8 (antibody, V domains shown, Tested as hybridoma supernatant at normalized concentration) VH: QVQLVQSGAEVQKPGASVKVSCKASGYTFTNYDINWVRQATGQGLEWMGWMNPNSGNTGYAQRFQGRVTMTRNTSISAAYMELSSLRSEDTAVYYCASSSGWYYFDYWGQGTLVTVSS VL: not shown |
